Target: the molecule itself
Test: SEC-MALS

Protein	stoichiometry N
cherry-core (CC) of CynR, effector binding domain (domain or fragment, Escherichia coli, UniProt P27111 59-299, looked up) DAGEVWRQYASRALQELGAGKRAIHDVADLTRGSLRIAVTPTFTSYFIGPLMADFYARYPSITLQLQEMSQEKIEDMLCRDELDVGIAFAPVHSPELEAIPLLTESLALVVAQHHPLAVHEQVALSRLHDEKLVLLSAEFATREQIDHYCEKAGLHPQVVIEANSISAVLELIRRTSLSTLLPAAIATQHDGLKAISLAPPLLERTAVLLRRKNSWQTAAAKAFLHMALDKCAVVGGNESR	2
CynR (full length) (natural protein, Escherichia coli, UniProt P27111 1-299, looked up) MLSRHINYFLAVAEHGSFTRAASALHVSQPALSQQIRQLEESLGVPLFDRSGRTIRLTDAGEVWRQYASRALQELGAGKRAIHDVADLTRGSLRIAVTPTFTSYFIGPLMADFYARYPSITLQLQEMSQEKIEDMLCRDELDVGIAFAPVHSPELEAIPLLTESLALVVAQHHPLAVHEQVALSRLHDEKLVLLSAEFATREQIDHYCEKAGLHPQVVIEANSISAVLELIRRTSLSTLLPAAIATQHDGLKAISLAPPLLERTAVLLRRKNSWQTAAAKAFLHMALDKCAVVGGNESR	4

— doi:10.1101/2020.10.19.344861 (bioRxiv, 2020)
